± gives the half width of the 95% confidence interval.
Experiment: folding stability dG unfold from trypsin proteolysis; higher = more stable
Method in brief: (§1)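 Mini-proteins designed to be under 80 residues and free of cysteine were carried in a PA-tagged cDNA display construct and digested with trypsin and with chymotrypsin. Each protease was applied at 11 threefold-diluted concentrations, alongside a no-protease condition, before sequencing. K50 came from Bayesian fitting of the sequencing counts, and unfolding free energy was obtained by comparing it with a sequence-predicted unfolded-state K50 and a shared folded-state K50, for each protease separately or for both together. Designs were retained only if their AlphaFold2 dimer inter-PAE exceeded 15.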

Row | Sequence | folding stability dG unfold [kcal/mol]
1 | SAGGSAGGSELPEGVEVETEPIAEIEITDEDGRKYKISIEAVKIRGPDGKEFLVISVSIEELPSAGGSAGGS [r12_544_TrROS_Hall] | 3.25 ± 0.56
2 | SAGGSAGGSSGMVKAEFGLVAPDGTPVSTRTLTFSSEEEIEEALAALPEFSLALVPDVKRGPLSAGGSAGGS [r12_182_JUSTAS] | -0.586 ± 0.38
3 | SAGGKKKVIEIKIEIKVPKEELKNMTKEEIAELLKKELEKKGIKIKKIEIVEIEIDGDTVTITIRIELSAGG [r13_432_TrROS_Hall] | 2.18 ± 0.15
4 | SAGGSAGGSAGMEPPEIKVEVSSDPTPSGMKVETIKDLGKGKTIIVLKPEDGSVSTSTLESAGGSAGGSAGG [r11_55_JUSTAS] | -0.0544 ± 0.19
5 | GENVPPKTVTVSAPVDPTTGRVTVNPGNTTVSISLPDGADVTLSFSTSMSEEEQLAFVEKEAAALNAALAAS [r1_25_JUSTAS] | 1.64 ± 0.027
6 | SAGGSAGGSAGGELKLLRIEVTGRAPYPTELLKTVEIVLPNEDVTEEQIRELLKELGIELSAGGSAGGSAGG [r7_903_TrMRF] | 0.226 ± 0.046
7 | SAGGSAGGSSPITIPIPLSELSEETLKKIAEENPEGETPIKIIKPDGTPVTIVVKPGGEIIGASAGGSAGGS [r12_1054_JUSTAS] | 0.728 ± 0.046
8 | SAGGSAGGSGVTIPIWYKMDPGQPVPTAEEIQNIINELGFPIKDIKVQYHPDNGYVRAEITVKSAGGSAGGS [r12_1052_TrROS] | 1.25 ± 0.048
9 | SAGSMLFDPNGVLREVSVTPDPSTGTTVTTTLVQWPVDDGNGNSVLERITTTTSPSGTVTTSTEVRPAPSAG [r5_303_JUSTAS] | 0.182 ± 0.027
10 | SAGGSAGGAANIPADQTLEFPTPDGYRRRLTYYPDEGLLVAEYVNPADGTPTFYTFDIPPDSTLSAGGSAGG [r6_406_TrMRF] | 0.864 ± 0.048
11 | SAGGNRKFTLIIRIKAPPGDPDKMKEEVKEIANEIADIFRDHGVKVKVKVEYDPDNGEIYVQVEFEVPSAGG [r13_755_TrROS] | 3.89 ± 0.29
12 | SAGGSPNYKINVEVEEYEPNPDNGKPYYRARIKIEWYNPENGREQTREIDFWMSPDKAEKFLKDILSAGGSA [r2_357_TrROS] | 1.89 ± 0.059
13 | SAGGSAGGSAGGPVFTPVGAGDEDTVTTETLPDGSPVLRYTVPGTGVVEVALPDGTLLAESAGGSAGGSAGG [r11_601_JUSTAS] | -0.722 ± 0.073
14 | SAGGSAGGSAIVILLPWGFLIEIKNIRMEMKRDPGNGEPKMDMHIPIEIIPIPPPGDPAFQESAGGSAGGSA [r18_6_TrROS] | 2.12 ± 0.054
15 | AFTITGIEVTYDPATNTVTVTATVTGPDGSTATVTLTLTLPAPPPPVTTVTRTETRTLPDGTTVTVTETFTS [r1_125_TrROS_Hall] | 2.21 ± 0.037
16 | SAGGSAGGSAVITLKPGETITITATITNADGSTVTITEVVRLPDGRLVVRVTNADGETYEFVLSAGGSAGGS [r12_31_TrROS_Hall] | 3.54 ± 0.16
17 | SAGGSWRVSVQFPDGKKIKIPEEPIQKIIQEYGIPPDPGDPERMVERIANRIADKYGYPVKNIEIDSAGGSA [r2_83_TrROS] | -0.377 ± 0.42

Experiment: folding stability dG unfold (combined trypsin and chymotrypsin); higher = more stable
Method in brief: as §1

Row | Sequence | folding stability dG unfold [kcal/mol]
18 | SAGGSAGGSELPEGVEVETEPIAEIEITDEDGRKYKISIEAVKIRGPDGKEFLVISVSIEELPSAGGSAGGS [r12_544_TrROS_Hall] | 3.81 ± 0.62
19 | SAGGSAGGSSGMVKAEFGLVAPDGTPVSTRTLTFSSEEEIEEALAALPEFSLALVPDVKRGPLSAGGSAGGS [r12_182_JUSTAS] | 0.51 ± 0.14
20 | SAGGKKKVIEIKIEIKVPKEELKNMTKEEIAELLKKELEKKGIKIKKIEIVEIEIDGDTVTITIRIELSAGG [r13_432_TrROS_Hall] | 2.72 ± 0.3
21 | SAGGSAGGSAGMEPPEIKVEVSSDPTPSGMKVETIKDLGKGKTIIVLKPEDGSVSTSTLESAGGSAGGSAGG [r11_55_JUSTAS] | 0.0414 ± 0.44
22 | GENVPPKTVTVSAPVDPTTGRVTVNPGNTTVSISLPDGADVTLSFSTSMSEEEQLAFVEKEAAALNAALAAS [r1_25_JUSTAS] | 1.18 ± 0.048
23 | SAGGSAGGSAGGELKLLRIEVTGRAPYPTELLKTVEIVLPNEDVTEEQIRELLKELGIELSAGGSAGGSAGG [r7_903_TrMRF] | 0.0188 ± 0.19
24 | SAGGSAGGSSPITIPIPLSELSEETLKKIAEENPEGETPIKIIKPDGTPVTIVVKPGGEIIGASAGGSAGGS [r12_1054_JUSTAS] | 1.01 ± 0.075
25 | SAGGSAGGSGVTIPIWYKMDPGQPVPTAEEIQNIINELGFPIKDIKVQYHPDNGYVRAEITVKSAGGSAGGS [r12_1052_TrROS] | 1.11 ± 0.17

Reference: the supplement of paper PMC12764529
